Assay results: patent publication US20040005550A1, “Methods and compositions useful for targeting activated vitronectin receptor alphavbeta3” (The Scripps Research Institute, priority 1998, published 2004)

Molecular target: T1, αvβ3 expressed in CHO cells (Homo sapiens, UniProt P05106+P06756)
T1 construct: cDNAs encoding full-length human αv and β3 were subcloned into pcDNA3 and pCDM8; expressed in transfected cells
Assay: Flow cytometry ligand binding to αvβ3-CHO cells
Conditions: in presence of antibody AP5; 2 mM RGDS, 50 μM cRGDfV, 1 μM Integrilin, 100 μg/ml LM609
Protocol: Binding of aPB, WOW-1 Fab and FITC-fibrinogen to cells was assessed by flow cytometry. Typically, cells were cultured overnight in low serum medium (e.g., 0.5% fetal bovine serum), resuspended in incubation buffer at 1-1.5×10^7 cells/ml, and 4-6×10^5 cells were incubated with one of these ligands for 30 min at room temperature in a final volume of 50 μl. […] In some experiments, ligand binding and αvβ3 expression were measured simultaneously by incubation of cells with ligands in the presence of biotin-SSA6 (7 μg/ml), a non-function-blocking anti-β3 monoclonal antibody (Abrams, C., Deng, J., Steiner, B., and Shattil, S. J. (1994) J. Biol. Chem. 269, 18781-18788). After 30 min at room temperature, cells were washed and incubated with phycoerythrin-streptavidin (1:25 final dilution; Molecular Probes) for 20 min on ice. In the case of WOW-1 Fab, an Alexa-conjugated anti-(His)6 monoclonal antibody (Accurate Chemical and Scientific Corp., Westbury, N.Y.) was added at this stage (50 μg/ml). Cells were washed and resuspended in 0.5 ml incubation buffer containing 2 μg/ml propidium iodide (Sigma, St. Louis, Mo.). Ligand binding (FL1 channel) was analyzed immediately on the gated subset of live cells (propidium iodide-negative, FL3) that was strongly positive for αvβ3 expression (FL2). […]

T1 sequence (P06756 31-889 limits assumed): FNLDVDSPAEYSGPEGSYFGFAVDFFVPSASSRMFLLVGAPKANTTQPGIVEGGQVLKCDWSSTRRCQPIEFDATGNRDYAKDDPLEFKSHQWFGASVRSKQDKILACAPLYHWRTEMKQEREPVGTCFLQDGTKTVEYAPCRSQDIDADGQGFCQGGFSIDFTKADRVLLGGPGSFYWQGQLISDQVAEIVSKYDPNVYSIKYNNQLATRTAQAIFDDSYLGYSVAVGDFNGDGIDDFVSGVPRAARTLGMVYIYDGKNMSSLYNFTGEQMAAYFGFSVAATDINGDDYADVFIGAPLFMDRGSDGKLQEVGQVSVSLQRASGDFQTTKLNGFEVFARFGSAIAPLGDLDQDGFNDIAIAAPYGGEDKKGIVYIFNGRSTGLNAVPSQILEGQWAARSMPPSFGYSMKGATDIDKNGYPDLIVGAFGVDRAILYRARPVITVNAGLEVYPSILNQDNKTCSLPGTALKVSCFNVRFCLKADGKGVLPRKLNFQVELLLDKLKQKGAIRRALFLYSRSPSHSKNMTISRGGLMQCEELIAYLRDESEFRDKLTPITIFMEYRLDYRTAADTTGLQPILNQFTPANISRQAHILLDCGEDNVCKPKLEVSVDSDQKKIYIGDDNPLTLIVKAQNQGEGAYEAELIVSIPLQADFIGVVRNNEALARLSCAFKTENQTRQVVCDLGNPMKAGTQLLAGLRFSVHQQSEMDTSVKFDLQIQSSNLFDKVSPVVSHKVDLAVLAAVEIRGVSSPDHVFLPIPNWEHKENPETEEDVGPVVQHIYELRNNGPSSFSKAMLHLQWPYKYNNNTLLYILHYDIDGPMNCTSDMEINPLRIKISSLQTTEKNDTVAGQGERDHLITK
T1 sequence (P06756 891-1048 partner limits assumed): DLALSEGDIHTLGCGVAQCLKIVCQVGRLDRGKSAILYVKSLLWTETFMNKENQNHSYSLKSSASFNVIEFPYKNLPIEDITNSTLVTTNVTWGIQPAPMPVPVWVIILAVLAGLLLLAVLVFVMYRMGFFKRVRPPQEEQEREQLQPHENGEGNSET
T1 sequence (P05106 27-788): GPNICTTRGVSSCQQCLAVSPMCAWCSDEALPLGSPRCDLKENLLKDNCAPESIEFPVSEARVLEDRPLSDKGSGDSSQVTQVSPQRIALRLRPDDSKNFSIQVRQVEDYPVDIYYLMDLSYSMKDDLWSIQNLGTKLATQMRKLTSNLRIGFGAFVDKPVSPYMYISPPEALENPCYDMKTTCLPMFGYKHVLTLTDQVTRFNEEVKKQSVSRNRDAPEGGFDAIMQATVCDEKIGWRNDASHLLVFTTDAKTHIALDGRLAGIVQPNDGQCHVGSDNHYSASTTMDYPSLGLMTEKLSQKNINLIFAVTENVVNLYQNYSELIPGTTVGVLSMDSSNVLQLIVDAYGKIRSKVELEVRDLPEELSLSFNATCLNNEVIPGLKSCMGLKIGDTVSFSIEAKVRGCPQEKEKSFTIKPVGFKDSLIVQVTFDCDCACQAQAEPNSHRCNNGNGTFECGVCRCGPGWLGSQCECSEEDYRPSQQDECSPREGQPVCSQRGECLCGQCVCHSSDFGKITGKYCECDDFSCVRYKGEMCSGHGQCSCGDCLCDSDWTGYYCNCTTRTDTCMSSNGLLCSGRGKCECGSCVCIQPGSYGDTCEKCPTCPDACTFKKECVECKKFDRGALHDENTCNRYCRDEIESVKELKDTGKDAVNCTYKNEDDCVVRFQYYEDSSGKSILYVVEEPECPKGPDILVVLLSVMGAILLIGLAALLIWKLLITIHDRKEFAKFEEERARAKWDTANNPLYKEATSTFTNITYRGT

inhibition of aPB and WOW-1 Fab binding: more than 70%
B1: LM609: αvβ3-specific function-blocking monoclonal antibody (antibody, V domains shown)
VH: EVQLEESGGGLVKPGGSLKLSCAASGFAFSSYDMSWVRQIPEKRLEWVAKVSSGGGSTYYLDTVQGRFTISRDNAKNTLYLQMSSLNSEDTAMYYCARHNYGSFAYWGQGTLVTVSA
VL: ELVMTQTPATLSVTPGDSVSLSCRASQSISNHLHWYQQKSHESPRLLIKYASQSISGIPSRFSGSGSGTDFTLSINSVETEDFGMYFCQQSNSWPHTFGGGTKLEIKRA
